The source of these data is publication PMC11439917 (Nature Communications, 2024).

The target in the assay is human full-length LRRK2 (leucine-rich repeat kinase 2), purified (human, UniProt Q5S007 1-2527). Put plainly: cryo-EM structure.
Chain of human full-length LRRK2 (leucine-rich repeat kinase 2), purified (Q5S007 whole entry): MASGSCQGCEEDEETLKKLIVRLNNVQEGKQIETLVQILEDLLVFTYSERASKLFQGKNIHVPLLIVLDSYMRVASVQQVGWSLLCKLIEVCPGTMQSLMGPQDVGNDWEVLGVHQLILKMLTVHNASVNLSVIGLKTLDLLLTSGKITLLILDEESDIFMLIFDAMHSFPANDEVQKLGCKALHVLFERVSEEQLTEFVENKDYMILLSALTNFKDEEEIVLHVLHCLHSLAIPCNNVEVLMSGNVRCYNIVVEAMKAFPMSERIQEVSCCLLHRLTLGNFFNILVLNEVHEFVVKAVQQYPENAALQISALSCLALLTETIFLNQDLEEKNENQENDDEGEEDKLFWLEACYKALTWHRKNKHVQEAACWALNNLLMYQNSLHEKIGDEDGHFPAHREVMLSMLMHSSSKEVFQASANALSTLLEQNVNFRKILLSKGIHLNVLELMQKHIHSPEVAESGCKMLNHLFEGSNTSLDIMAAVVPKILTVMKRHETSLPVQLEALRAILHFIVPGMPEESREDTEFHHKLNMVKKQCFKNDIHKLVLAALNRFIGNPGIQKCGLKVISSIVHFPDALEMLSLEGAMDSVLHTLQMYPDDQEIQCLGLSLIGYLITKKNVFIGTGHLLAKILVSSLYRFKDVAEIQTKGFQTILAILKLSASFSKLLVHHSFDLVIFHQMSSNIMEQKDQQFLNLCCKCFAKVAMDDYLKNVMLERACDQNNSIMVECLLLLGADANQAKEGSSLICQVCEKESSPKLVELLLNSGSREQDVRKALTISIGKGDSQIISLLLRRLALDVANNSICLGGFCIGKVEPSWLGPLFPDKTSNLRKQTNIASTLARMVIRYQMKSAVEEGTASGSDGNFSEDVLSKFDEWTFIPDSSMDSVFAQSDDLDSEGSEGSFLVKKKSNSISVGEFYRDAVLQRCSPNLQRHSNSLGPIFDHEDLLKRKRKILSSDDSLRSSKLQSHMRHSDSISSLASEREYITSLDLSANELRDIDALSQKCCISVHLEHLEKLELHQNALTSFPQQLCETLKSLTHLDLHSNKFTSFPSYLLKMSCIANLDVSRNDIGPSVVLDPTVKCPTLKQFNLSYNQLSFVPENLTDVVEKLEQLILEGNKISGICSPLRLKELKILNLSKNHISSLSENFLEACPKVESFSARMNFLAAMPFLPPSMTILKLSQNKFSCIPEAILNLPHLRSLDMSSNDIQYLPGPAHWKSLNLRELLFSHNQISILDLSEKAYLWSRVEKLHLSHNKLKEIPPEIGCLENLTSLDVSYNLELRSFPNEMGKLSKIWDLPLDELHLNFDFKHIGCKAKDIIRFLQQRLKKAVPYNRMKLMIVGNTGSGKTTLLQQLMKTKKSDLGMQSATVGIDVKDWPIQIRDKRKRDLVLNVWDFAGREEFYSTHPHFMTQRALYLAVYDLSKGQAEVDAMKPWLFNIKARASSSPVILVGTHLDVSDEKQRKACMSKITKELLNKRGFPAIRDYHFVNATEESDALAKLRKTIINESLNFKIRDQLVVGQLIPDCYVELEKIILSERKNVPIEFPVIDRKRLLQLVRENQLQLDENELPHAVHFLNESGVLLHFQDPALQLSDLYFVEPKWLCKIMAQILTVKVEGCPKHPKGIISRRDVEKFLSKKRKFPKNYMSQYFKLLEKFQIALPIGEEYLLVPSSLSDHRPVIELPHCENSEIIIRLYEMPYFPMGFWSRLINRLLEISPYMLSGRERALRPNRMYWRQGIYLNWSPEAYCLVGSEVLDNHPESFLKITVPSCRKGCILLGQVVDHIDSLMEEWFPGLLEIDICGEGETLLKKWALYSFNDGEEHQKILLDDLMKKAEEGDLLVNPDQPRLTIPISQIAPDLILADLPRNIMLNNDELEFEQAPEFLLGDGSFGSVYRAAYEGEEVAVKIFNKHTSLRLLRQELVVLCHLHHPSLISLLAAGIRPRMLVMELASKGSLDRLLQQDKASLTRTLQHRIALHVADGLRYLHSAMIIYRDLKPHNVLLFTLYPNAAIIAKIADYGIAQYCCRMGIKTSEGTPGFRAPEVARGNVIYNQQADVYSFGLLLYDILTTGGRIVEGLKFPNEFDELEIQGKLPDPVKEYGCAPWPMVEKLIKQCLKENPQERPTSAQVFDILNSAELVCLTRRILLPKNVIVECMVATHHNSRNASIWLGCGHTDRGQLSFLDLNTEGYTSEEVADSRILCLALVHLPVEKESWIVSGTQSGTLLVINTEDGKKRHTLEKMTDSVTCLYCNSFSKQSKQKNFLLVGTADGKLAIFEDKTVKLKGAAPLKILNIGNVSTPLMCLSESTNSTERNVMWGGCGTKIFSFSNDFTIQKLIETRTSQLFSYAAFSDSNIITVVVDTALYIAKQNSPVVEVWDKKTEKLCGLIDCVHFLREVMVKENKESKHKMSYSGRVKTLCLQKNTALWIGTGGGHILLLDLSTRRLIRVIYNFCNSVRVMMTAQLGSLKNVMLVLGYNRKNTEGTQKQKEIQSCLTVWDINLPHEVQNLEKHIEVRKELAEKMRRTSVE

B1: human RAB12 (residues 36-211) Q101L, GppNHp-bound (domain or fragment)
chain: PRPADFKLQVIIIGSRGVGKTSLMERFTDDTFCEACKSTVGVDFKIKTVELRGKKIRLQIWDTAGLERFNSITSAYYRSAKGIILVYDITKKETFDDLPKWMKMIDKYASEDAELLLVGNKLDCETDREITRQQGEKFAQQITGMRFCEASAKDNFNVDEIFLKLVDDILKKMPLD
For B1, the binding result was “binds”.
